The chains are these.
B1: chimeric 8B10 Fab, VH Y61A (Fab, V domains shown)
VH: EVKLVESGGGLEQPKGSLKLSCTVSGFDFNSYGMSWVRQAPGKGLDLVADINSKSYNYATAYADSVKDRFTISRDDSQSMVYLEMDNLKTEDTALYYCTVHHSDYFEYWGQGVMVTVSS
VL: DIQMTQSPASLSASLGETVSIECLASEDIYNNLAWYQQKPGKSPQLLIYHASSLQDGVPSRFSGSGSGTQYSLKINSLESEDAATYFCLQDSEYPPTFGGGTKLELKR
notes: Rat V domains with human CH1 and CL; E. coli periplasmic extract
B2: chimeric 8B10 Fab, VL Y49A (Fab, V domains shown)
VH: B1 VH with A61Y
VL: B1 VL with Y49A
notes: as for B1
B3: chimeric 8B10 Fab, VL Y30A (Fab, V domains shown)
VH: B1 VH with A61Y
VL: B1 VL with Y30A
notes: as for B1
B4: chimeric 8B10 Fab, VL E93A (Fab, V domains shown)
VH: B1 VH with A61Y
VL: B1 VL with E93A
notes: as for B1
B5: chimeric 8B10 Fab, VH Y105A (Fab, V domains shown)
VH: B1 VH with A61Y, Y105A
VL: B1 VL
notes: as for B1
B6: chimeric 8B10 Fab, VL N31A (Fab, V domains shown)
VH: B1 VH with A61Y
VL: B1 VL with N31A
notes: as for B1
B7: chimeric 8B10 Fab, VL N32A (Fab, V domains shown)
VH: B1 VH with A61Y
VL: B1 VL with N32A
notes: as for B1
B8: chimeric 8B10 Fab, VL S92A (Fab, V domains shown)
VH: B1 VH with A61Y
VL: B1 VL with S92A
notes: as for B1
B9: chimeric 8B10 Fab, VL D28A (Fab, V domains shown)
VH: B1 VH with A61Y
VL: B1 VL with D28A
notes: as for B1
B10: chimeric 8B10 Fab, VL H50A (Fab, V domains shown)
VH: B1 VH with A61Y
VL: B1 VL with H50A
notes: as for B1
B11: chimeric 8B10 Fab, VL E27A (Fab, V domains shown)
VH: B1 VH with A61Y
VL: B1 VL with E27A
notes: as for B1
B12: chimeric 8B10 Fab, VL N31T (Fab, V domains shown)
VH: B1 VH with A61Y
VL: B1 VL with N31T
notes: as for B1
B13: chimeric 8B10 Fab, VL D91A (Fab, V domains shown)
VH: B1 VH with A61Y
VL: B1 VL with D91A
notes: as for B1
B14: chimeric 8B10 Fab, VL S53A (Fab, V domains shown)
VH: B1 VH with A61Y
VL: B1 VL with S53A
notes: Rat V domains with human CH1 and CL; E. coli periplasmic extract; also called S53A (light chain variable domain)
B15: humanized anti-human IL-23R antibody hu8B10-b (antibody, V domains shown)
VH: QVQLVESGGGVVQPGRSLRLSCAASGFDFNSYGMSWVRQAPGKGLDLVADINSKSYNYATYYADSVKDRFTISRDNSKNTLYLQMNSLRAEDTAVYYCAVHHSDYFEYWGQGTLVTVSS
VL: DIQMTQSPSSLSASVGDRVTITCRASQDIYTNLAWYQQKPGKAPKLLIYHASSLQDGVPSRFSGSGSGTDYTLTISSLQPEDFATYYCLQDSEYPPTFGQGTKVEIKR
B16: hu8B10-b variant, VH N52D (antibody, V domains shown)
VH: B15 VH with N52D
VL: B15 VL
notes: also called VH: 8B10-b N52D / VL: 8B10-b
B17: antibody with hu8B10 VH and hu8B10 VL N31T (antibody, V domains shown)
VH: B15 VH with D46E, L47W, V100R
VL: B15 VL with R24L, Q27E, Y71F
notes: also called VH: hu8B10 / VL: hu8B10 N31T
B18: hu8B10-b variant, VL D56S (antibody, V domains shown)
VH: B15 VH
VL: B15 VL with D56S
notes: also called VH: 8B10-b / VL: 8B10-b D56S
B19: hu8B10-b variant, VH N57S (antibody, V domains shown)
VH: B15 VH with N57S
VL: B15 VL
notes: also called VH: 8B10-b N57S / VL: 8B10-b
B20: hu8B10-b variant, VH N57D (antibody, V domains shown)
VH: B15 VH with N57D
VL: B15 VL
notes: also called VH: 8B10-b N57D / VL: 8B10-b
B21: hu8B10-b variant, VH N52S (antibody, V domains shown)
VH: B15 VH with N52S
VL: B15 VL
notes: also called VH: 8B10-b N52S / VL: 8B10-b
B22: hu8B10-b variant, VH N30D (antibody, V domains shown)
VH: B15 VH with N30D
VL: B15 VL
notes: also called VH: 8B10-b N30D / VL: 8B10-b
B23: hu8B10-b variant, VL D56E (antibody, V domains shown)
VH: B15 VH
VL: B15 VL with D56E
notes: also called VH: 8B10-b / VL: 8B10-b D56E
B24: hu8B10-b variant, VH N30S (antibody, V domains shown)
VH: B15 VH with N30S
VL: B15 VL
notes: also called VH: 8B10-b N30S / VL: 8B10-b
B25: antibody with hu8B10-b VH and hu8B10 VL N31T (antibody, V domains shown)
VH: B15 VH
VL: B15 VL with R24L, Q27E, Y71F
notes: also called VH: hu8B10-b / VL: hu8B10 N31T
B26: humanized anti-human IL-23R antibody hu8B10-c (antibody, V domains shown)
VH: B15 VH with N30S
VL: B15 VL with D56S
notes: 8B10-b with VL D56S and VH N30S
B27: hu8B10-b variant, VL N32S (antibody, V domains shown)
VH: B15 VH
VL: B15 VL with N32S
notes: also called VH: 8B10-b / VL: 8B10-b N32S
B28: chimeric 8B10 Fab, VL N31del (Fab, V domains shown)
VH: B1 VH with A61Y
VL: DIQMTQSPASLSASLGETVSIECLASEDIYNLAWYQQKPGKSPQLLIYHASSLQDGVPSRFSGSGSGTQYSLKINSLESEDAATYFCLQDSEYPPTFGGGTKLELK
notes: as for B1
B29: chimeric 8B10 Fab, VL Y94A (Fab, V domains shown)
VH: B1 VH with A61Y
VL: B1 VL with Y94A
notes: as for B1

Positions count from the first letter of the chain named. Names may count otherwise.

One assay concerns the target T1, biotinylated huIL-23R-IgG (human, UniProt Q5VWK5 24-353, biotinylated).
T1 construct: not shown: human IgG1 Fc
T1 sequence: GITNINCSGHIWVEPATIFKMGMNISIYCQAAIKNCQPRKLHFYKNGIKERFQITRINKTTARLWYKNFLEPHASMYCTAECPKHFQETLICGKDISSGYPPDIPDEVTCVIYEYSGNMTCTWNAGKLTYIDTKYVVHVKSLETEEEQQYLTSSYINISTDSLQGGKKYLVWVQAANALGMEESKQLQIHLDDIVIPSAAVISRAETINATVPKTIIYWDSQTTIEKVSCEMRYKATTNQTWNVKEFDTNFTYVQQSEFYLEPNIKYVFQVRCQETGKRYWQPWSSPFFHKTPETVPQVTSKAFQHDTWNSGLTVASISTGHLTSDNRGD
The assay can be described thus: ECL binding assay, periplasmic Fab extracts, biotinylated huIL-23R-IgG; AUC vs parental 8B10 Fab. An excerpt:
(§1) The N31T change was introduced as a result of affinity maturation experiments, as follows. An E. coli expression vector for expression into the periplasmic space was constructed encoding a chimeric Fab fragment of rat antibody 8B10 comprising rat variable domains, a human constant light chain domain (CL) and a human constant heavy chain domain CH1. Mutations were introduced using a QuikChange® site directed mutagenesis kit (Stratagene Inc., LaJolla, Calif., USA). Primers were designed to replace selected positions with either alanine, or by all 20 amino acids, using the NNK codon approach (N includes an equimolar mix of A/G/C/T and K includes only G/T). To reduce background, alanine mutants at each position were used as the template for the randomization step. Unpurified periplasmic extracts were then tested for human IL-23R binding activity using an electrochemiluminescence assay with biotinylated huIL-23R-IgG and goat anti-huFab-Ori-Tag for detection. The area under the curve was used to compare the binding activity of sequence variants to the original parental 8B10 Fab. Data were fitted using GraphPad Prism® 3.0 software (Graphpad Software inc., San Diego, Calif. USA).
As for B1, the “Binding (% of w.t.)” value is 41.7 % of w.t.

With B2, the “Binding (% of w.t.)” value is 62.4 % of w.t. On the same count and under the same terms, then B3, with 3.2 % of w.t; and B4, with 62.8 % of w.t. As for B5, the “Binding (% of w.t.)” value is 18.3 % of w.t. In the case of B6, the “Binding (% of w.t.)” value was 117 % of w.t.

For the molecule B7, the “Binding (% of w.t.)” value is 13.4 % of w.t. Same read-out and setting: next, B8: 68.4 % of w.t. B9: the “Binding (% of w.t.)” value is 93.1 % of w.t. Same read-out and setting: next, B10: 62.2 % of w.t.

For the molecule B11, the “Binding (% of w.t.)” value is 96.2 % of w.t.

With B12, the “Binding (% of w.t.)” value was 129 % of w.t. For B13, the “Binding (% of w.t.)” value is 5.6 % of w.t. As to B14, the “Binding (% of w.t.)” value was 85 % of w.t.

The next assay addresses T2, human IL-23R (human, UniProt Q5VWK5 24-353, limits assumed).
T2 construct: also called huIL-23R; human interleukin-23R
T2 sequence: T1 sequence
Description: BIAcore SPR, antibody immobilised. Here is the method: BIAcore® label-free interaction analysis system determinations are performed essentially as described at Example 4 of U.S. Patent Application Publication No. 2007/0048315, which is hereby incorporated by reference. Briefly, ligands (anti-IL-23R mAbs) are immobilized on a BIAcore® label-free interaction analysis system CM5 sensor chip using standard amine-coupling procedure. Kinetic constants for the various interactions are determined using BIAevaluation software 3.1. The Kd is determined using the calculated dissociation and association rate constants.
Several sequence variants intended to increase the chemical stability of hu8B10-b were produced to evaluate their effects on binding affinity. Kd values are provided at Table 3. Binding to human IL-23R was determined using the BIAcore® label-free interaction analysis system (surface plasmon resonance), essentially as described in Example 4 (supra). Chimeric forms, designated as “chim,” refers to rat variable domains linked to human IgG1 heavy chain and human kappa light chain constant domains, e.g., as presented at SEQ ID NOs: 16 and 17, respectively, or as at SEQ ID NOs: 22 and 23, respectively. Sequences for heavy and light chain variable domains are provided at FIGS. 1 and 2, and in the Sequence Listing (as described at Table 4). Antibodies incorporate the sequence changes recited in the table (“Variant(s)”) for the respective heavy and light chains. Data arc presented as mean±standard deviation for multiple determinations, and without error estimates for single determinations.
For orientation: Kd means the free concentration of one partner at which half of the binding sites on the other are occupied at equilibrium, for simple one-to-one binding. In turn, B15 came in with a Kd of 0.154 nM. As to B16, the binding result is recorded as “no binding”.

For the molecule B17, the binding result is recorded as “no binding”.

In the case of B18, the Kd was 0.187 nM. Still for that read-out and setting: then B19, with 0.382 nM; and B20, with 0.22 nM; and B21, with 0.444 nM. For the molecule B22, binding was put at a Kd of 0.114 nM. On to B23, for which the equilibrium dissociation constant (Kd) was 0.179 nM. On the same count and under the same terms, next, B24: 0.168 nM; B25: 5.38 nM. Same read-out and setting: next, B26: 0.18 nM.

As to B27, binding was characterised by a dissociation constant (Kd) of 19.2 nM.

In the next assay the target is T1, biotinylated huIL-23R-IgG. Description: ECL binding assay, Binding (% of w.t.).
From the text: as §1
Regarding B28, the binding result is “no binding”. B29: the binding result was “no binding”.

The values above are taken from patent publication US20110158992A1 (SCHERING, published 2011).
